Assay results as given in patent US20250388640A1 (SYNTHEKINE, published 2025).

Experiments:
[1] = biological target: T1, hIL-12 receptor signaling complex (hIL-12Rβ1 and hIL-12Rβ2) (human, UniProt P42701 24-662; Q99665 24-862); assay: cell-based or functional assay
[2] = biological target: T1, hIL-12 receptor signaling complex …; assay: cell-based or functional assay; remark: listed apart in the source

T1 sequence (Q99665 24-862, chain 2 of 2, other chains not shown): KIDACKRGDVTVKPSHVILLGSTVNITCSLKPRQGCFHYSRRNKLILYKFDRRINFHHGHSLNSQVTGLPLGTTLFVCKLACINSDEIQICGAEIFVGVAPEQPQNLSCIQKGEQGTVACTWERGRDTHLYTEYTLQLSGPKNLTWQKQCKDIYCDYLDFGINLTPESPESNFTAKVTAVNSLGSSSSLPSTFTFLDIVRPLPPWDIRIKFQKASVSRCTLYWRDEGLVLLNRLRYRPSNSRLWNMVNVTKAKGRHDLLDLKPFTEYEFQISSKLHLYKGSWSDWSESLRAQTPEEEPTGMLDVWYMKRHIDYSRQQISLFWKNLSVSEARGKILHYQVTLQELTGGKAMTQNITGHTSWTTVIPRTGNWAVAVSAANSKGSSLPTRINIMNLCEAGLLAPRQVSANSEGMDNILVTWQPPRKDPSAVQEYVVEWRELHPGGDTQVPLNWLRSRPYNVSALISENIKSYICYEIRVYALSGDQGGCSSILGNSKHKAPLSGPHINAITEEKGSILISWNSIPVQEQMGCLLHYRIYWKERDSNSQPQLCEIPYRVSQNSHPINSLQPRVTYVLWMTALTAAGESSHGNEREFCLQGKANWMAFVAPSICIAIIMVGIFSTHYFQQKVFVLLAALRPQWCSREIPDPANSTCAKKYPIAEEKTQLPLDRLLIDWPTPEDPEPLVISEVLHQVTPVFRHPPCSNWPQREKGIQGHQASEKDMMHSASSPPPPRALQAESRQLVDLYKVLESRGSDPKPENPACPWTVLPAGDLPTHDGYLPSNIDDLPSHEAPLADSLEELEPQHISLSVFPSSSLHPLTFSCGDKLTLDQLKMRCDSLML

Row | pSTAT4 [%+] EC50, CD8+ T Cells [1] [nM] | pSTAT4 [%+] EC50, CD56hi NK Cells [1] [nM] | pSTAT4 [%+] Emax, CD8+ T Cells [1] [%+] | pSTAT4 [%+] Emax, CD56hi NK Cells [1] [%+] | pSTAT4 [gMFI] EC50, CD8+ T Cells [2] [nM] | pSTAT4 [gMFI] EC50, CD56hi NK Cells [2] [nM] | pSTAT4 [gMFI] Emax, CD8+ T Cells [2] [gMFI] | pSTAT4 [gMFI] Emax, CD56hi NK Cells [2] [gMFI] | Binder
1 | 0.87 | 1.9 | 81.2 | 88.2 | 4.5 | 10.3 | 101000 | 29300 | human IL12 mutein, hIL-12p40 E81A, F82T with hIL-12p35-8X His (ligand) chain 1: IWELKKDVYVVELDWYPDAPGEMVVLTCDTPEEDGITWTLDQSSEVLGSGKTLTIQVKATGDAGQYTCHKGGEVLSHSLLLLHKKEDGIWSTDILKDQKEPKNKTFLRCEAKNYSGRFTCWWLTTISTDLTFSVKSSRGSSDPQGVTCGAATLSAERVRGDNKEYEYSVECQEDSACPAAEESLPIEVMVDAVHKLKYENYTSSFFIRDIIKPDPPKNLQLKPLKNSRQVEVSWEYPDTWSTPHSYFSLTFCVQVQGKSKREKKDRVFTDKTSATVICRKNASISVRAQDRYYSSSWSEWASVPCS chain 2: RNLPVATPDPGMFPCLHHSQNLLRAVSNMLQKARQTLEFYPCTSEEIDHEDITKDKTSTVEACLPLELTKNESCLNSRETSFITNGSCLASRKTSFMMALCLSSIYEDLKMYQVEFKTMNAKLLMDPKRQIFLDQNMLAVIDELMQALNFNSETVPQKSSLEEPDFYKTKIKLCILLHAFRIRAVTIDRVMSYLNASGSHHHHHHHH
2 | 0.09 | 0.19 | 83.5 | 91.7 | 0.37 | 1.19 | 108000 | 35700 | human IL12 mutein, hIL-12p40 E81A, F82Y with hIL-12p35-8X His (ligand) chain 1: IWELKKDVYVVELDWYPDAPGEMVVLTCDTPEEDGITWTLDQSSEVLGSGKTLTIQVKAYGDAGQYTCHKGGEVLSHSLLLLHKKEDGIWSTDILKDQKEPKNKTFLRCEAKNYSGRFTCWWLTTISTDLTFSVKSSRGSSDPQGVTCGAATLSAERVRGDNKEYEYSVECQEDSACPAAEESLPIEVMVDAVHKLKYENYTSSFFIRDIIKPDPPKNLQLKPLKNSRQVEVSWEYPDTWSTPHSYFSLTFCVQVQGKSKREKKDRVFTDKTSATVICRKNASISVRAQDRYYSSSWSEWASVPCS chain 2: RNLPVATPDPGMFPCLHHSQNLLRAVSNMLQKARQTLEFYPCTSEEIDHEDITKDKTSTVEACLPLELTKNESCLNSRETSFITNGSCLASRKTSFMMALCLSSIYEDLKMYQVEFKTMNAKLLMDPKRQIFLDQNMLAVIDELMQALNFNSETVPQKSSLEEPDFYKTKIKLCILLHAFRIRAVTIDRVMSYLNASGSHHHHHHHH
3 | 0.29 | 0.39 | 84.1 | 88.4 | 1.22 | 1.82 | 111000 | 30700 | human IL12 mutein, hIL-12p40 E81A, F82W with hIL-12p35-8X His (ligand) chain 1: IWELKKDVYVVELDWYPDAPGEMVVLTCDTPEEDGITWTLDQSSEVLGSGKTLTIQVKAWGDAGQYTCHKGGEVLSHSLLLLHKKEDGIWSTDILKDQKEPKNKTFLRCEAKNYSGRFTCWWLTTISTDLTFSVKSSRGSSDPQGVTCGAATLSAERVRGDNKEYEYSVECQEDSACPAAEESLPIEVMVDAVHKLKYENYTSSFFIRDIIKPDPPKNLQLKPLKNSRQVEVSWEYPDTWSTPHSYFSLTFCVQVQGKSKREKKDRVFTDKTSATVICRKNASISVRAQDRYYSSSWSEWASVPCS chain 2: RNLPVATPDPGMFPCLHHSQNLLRAVSNMLQKARQTLEFYPCTSEEIDHEDITKDKTSTVEACLPLELTKNESCLNSRETSFITNGSCLASRKTSFMMALCLSSIYEDLKMYQVEFKTMNAKLLMDPKRQIFLDQNMLAVIDELMQALNFNSETVPQKSSLEEPDFYKTKIKLCILLHAFRIRAVTIDRVMSYLNASGSHHHHHHHH
4 | 0.76 | 1.15 | 80.9 | 89.3 | 4.33 | 17.2 | 102000 | 36800 | human IL12 mutein, hIL-12p40 E81A, F82V with hIL-12p35-8X His (ligand) chain 1: IWELKKDVYVVELDWYPDAPGEMVVLTCDTPEEDGITWTLDQSSEVLGSGKTLTIQVKAVGDAGQYTCHKGGEVLSHSLLLLHKKEDGIWSTDILKDQKEPKNKTFLRCEAKNYSGRFTCWWLTTISTDLTFSVKSSRGSSDPQGVTCGAATLSAERVRGDNKEYEYSVECQEDSACPAAEESLPIEVMVDAVHKLKYENYTSSFFIRDIIKPDPPKNLQLKPLKNSRQVEVSWEYPDTWSTPHSYFSLTFCVQVQGKSKREKKDRVFTDKTSATVICRKNASISVRAQDRYYSSSWSEWASVPCS chain 2: RNLPVATPDPGMFPCLHHSQNLLRAVSNMLQKARQTLEFYPCTSEEIDHEDITKDKTSTVEACLPLELTKNESCLNSRETSFITNGSCLASRKTSFMMALCLSSIYEDLKMYQVEFKTMNAKLLMDPKRQIFLDQNMLAVIDELMQALNFNSETVPQKSSLEEPDFYKTKIKLCILLHAFRIRAVTIDRVMSYLNASGSHHHHHHHH
5 | 0.98 | 1.36 | 80.2 | 86.9 | 5.54 | 7.62 | 101000 | 28000 | human IL12 mutein, hIL-12p40 E81A, F82R with hIL-12p35-8X His (ligand) chain 1: IWELKKDVYVVELDWYPDAPGEMVVLTCDTPEEDGITWTLDQSSEVLGSGKTLTIQVKARGDAGQYTCHKGGEVLSHSLLLLHKKEDGIWSTDILKDQKEPKNKTFLRCEAKNYSGRFTCWWLTTISTDLTFSVKSSRGSSDPQGVTCGAATLSAERVRGDNKEYEYSVECQEDSACPAAEESLPIEVMVDAVHKLKYENYTSSFFIRDIIKPDPPKNLQLKPLKNSRQVEVSWEYPDTWSTPHSYFSLTFCVQVQGKSKREKKDRVFTDKTSATVICRKNASISVRAQDRYYSSSWSEWASVPCS chain 2: RNLPVATPDPGMFPCLHHSQNLLRAVSNMLQKARQTLEFYPCTSEEIDHEDITKDKTSTVEACLPLELTKNESCLNSRETSFITNGSCLASRKTSFMMALCLSSIYEDLKMYQVEFKTMNAKLLMDPKRQIFLDQNMLAVIDELMQALNFNSETVPQKSSLEEPDFYKTKIKLCILLHAFRIRAVTIDRVMSYLNASGSHHHHHHHH
